According to paper PMC314469, “Protein Interaction Networks by Proteome Peptide Scanning” (PLoS Biology, 2004):

B1: YBR297W 381-394 (peptide)
chain: VHGPGIPMKSLEVA
B2: YKL060C 315-328 (peptide)
chain: VGNPEGPEKPNKKF
B3: YML109W 711-724 (peptide)
chain: VERPSSPTKTITTE
B4: YCR042C 478-491 (peptide)
chain: VFLPTAPSKHMDFA
B5: YNL094W 505-518 (peptide)
chain: VAPPPLPNRQLPNL
B6: YPL006W 878-891 (peptide)
chain: VSPPSFPSRRSETS
B7: YJL005W 424-437 (peptide)
chain: VIMPEGPRKSVSMA
B8: YOR067C 374-387 (peptide)
chain: VILPQIPPKLTFIL
B9: YKR084C 145-158 (peptide)
chain: TTVPTKPKKPHDIS
B10: YFR028C 120-133 (peptide)
chain: VDPPFMPFRDAGYS
B11: YDL171C 1275-1288 (peptide)
chain: VIRPGVPTKFTKKQ
B12: YIL115C 910-923 (peptide)
chain: VENPFLPAKEERTG
B13: YAL011W 347-360 (peptide)
chain: TTRPAPPSKAKDVA
B14: YGR288W 386-399 (peptide)
chain: VHGPGVPVKTLEIA
B15: YGR217W 326-339 (peptide)
chain: VFSPTNPLRIKIAR
B16: YJL091C 152-165 (peptide)
chain: VDFPIFPRRFAKVE
B17: YDR085C 535-548 (peptide)
chain: VETPPKPIKKDVRF
B18: YBR163W 375-388 (peptide)
chain: VDAPINPTKILTFI
B19: YPR196W 383-396 (peptide)
chain: VHGPVIPMKALEIA
B20: YNL298W 513-526 (peptide)
chain: VAKPKKPARPTMST
B21: YMR191W 432-445 (peptide)
chain: VKEPSFPSRSAFSP
B22: YGR184C 643-656 (peptide)
chain: VHDPNIPLRPKEII

Molecular target: T1, Rvs167 SH3 (RV167_YEAST), P39743
T1 chain: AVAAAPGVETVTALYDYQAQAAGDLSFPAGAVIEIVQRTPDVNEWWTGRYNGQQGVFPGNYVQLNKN
Test: SPOT array

| Binder | normalised SPOT signal, Boehringer light units (BLU); mean over the file's lines of this peptide |
| --- | --- |
| B1 | 43.5 |
| B2 | 34.3 |
| B3 | 24.4 |
| B4 | 208 |
| B5 | 32500 |
| B6 | 1730 |
| B7 | 176 |
| B8 | 10 |
| B9 | 18.4 |
| B10 | 23.3 |
| B11 | 58.1 |
| B12 | 0 |
| B13 | 125 |
| B14 | 52.7 |
| B15 | 1.8 |
| B16 | 512 |
| B17 | 86.3 |
| B18 | 67.9 |
| B19 | 27.7 |
| B20 | 86.9 |
| B21 | 59 |
| B22 | 51.5 |

Molecular target: T2, Boi2 SH3 (BOI2_YEAST), P39969
T2 chain: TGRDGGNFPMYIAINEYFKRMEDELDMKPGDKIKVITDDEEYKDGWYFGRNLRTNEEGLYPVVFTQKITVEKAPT
Test: SPOT array

| Binder | normalised SPOT signal, Boehringer light units (BLU); mean over the file's lines of this peptide |
| --- | --- |
| B1 | 49.9 |
| B2 | 50.6 |
| B3 | 45.2 |
| B4 | 46.3 |
| B5 | 73.2 |
| B6 | 117 |
| B7 | 232 |
| B8 | 10.1 |
| B9 | 22.9 |
| B10 | 37.7 |
| B11 | 63.3 |
| B12 | 15.7 |
| B13 | 72 |
| B14 | 56.6 |
| B15 | 16.2 |
| B16 | 135 |
| B17 | 70.6 |
| B18 | 69.3 |
| B19 | 27.7 |
| B20 | 77.1 |
| B21 | 41.9 |
| B22 | 57.8 |

Molecular target: T3, Yfr024 SH3 (LSB3_YEAST), P43603
T3 chain: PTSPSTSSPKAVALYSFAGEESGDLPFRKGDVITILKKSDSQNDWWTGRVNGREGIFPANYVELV
Test: SPOT array

| Binder | normalised SPOT signal, Boehringer light units (BLU); mean over the file's lines of this peptide |
| --- | --- |
| B1 | 32.9 |
| B2 | 186 |
| B3 | 0 |
| B4 | 242 |
| B5 | 32400 |
| B6 | 40300 |
| B7 | 1120 |
| B8 | 812 |
| B9 | 1540 |
| B10 | 579 |
| B11 | 202 |
| B12 | 82.3 |
| B13 | 767 |
| B14 | 43.4 |
| B15 | 648 |
| B16 | 16100 |
| B17 | 677 |
| B18 | 0 |
| B19 | 138 |
| B20 | 9080 |
| B21 | 1090 |
| B22 | 562 |

Molecular target: T4, Boi1 SH3 (BOI1_YEAST), P38041
T4 chain: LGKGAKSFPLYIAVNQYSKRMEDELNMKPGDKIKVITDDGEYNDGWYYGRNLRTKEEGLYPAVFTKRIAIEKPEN
Test: SPOT array

| Binder | normalised SPOT signal, Boehringer light units (BLU); mean over the file's lines of this peptide |
| --- | --- |
| B1 | 44.3 |
| B2 | 255 |
| B3 | 39.5 |
| B4 | 100 |
| B5 | 1470 |
| B6 | 703 |
| B7 | 75.3 |
| B8 | 107 |
| B9 | 81.6 |
| B10 | 70.9 |
| B11 | 121 |
| B12 | 7.6 |
| B13 | 61.3 |
| B14 | 114 |
| B15 | 110 |
| B16 | 2050 |
| B17 | 65 |
| B18 | 52.9 |
| B19 | 56.4 |
| B20 | 71.1 |
| B21 | 44.6 |
| B22 | 22.9 |

Molecular target: T5, Yhr016c SH3 (YSC84_YEAST), P32793
T5 chain: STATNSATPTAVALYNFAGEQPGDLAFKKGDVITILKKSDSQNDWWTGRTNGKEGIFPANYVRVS
Test: SPOT array

| Binder | normalised SPOT signal, Boehringer light units (BLU); mean over the file's lines of this peptide |
| --- | --- |
| B1 | 381 |
| B2 | 131 |
| B3 | 159 |
| B4 | 44.5 |
| B5 | 27300 |
| B6 | 42100 |
| B7 | 358 |
| B8 | 158 |
| B9 | 114 |
| B10 | -0 |
| B11 | 125 |
| B12 | 188 |
| B13 | 251 |
| B14 | 116 |
| B15 | 151 |
| B16 | 1680 |
| B17 | 372 |
| B18 | 34 |
| B19 | 92.9 |
| B20 | 4950 |
| B21 | 246 |
| B22 | 110 |
